The values that follow come from PMC6022668, “Biallelic UFM1 and UFC1 mutations expand the essential role of ufmylation in brain development” (Brain, 2018).

In this experiment the target is T1, GST-UBA5 (UniProt Q9GZZ9 1-404).
T1 construct: also called E1-like enzyme for ufmylation; source: recombinant, E. coli, purified on Glutathione Sepharose 4B (GST kept)
The experiment in a line: pull-down; GST-UBA5 bound to Glutathione Sepharose 4B, incubated 20 min at 4°C with purified proteins in 20 mM Tris-Cl pH 7.5, 150 mM NaCl, 1 mM EDTA, 1 mM DTT, 0.05% Nonidet P-40; NuPAGE and Coomassie staining. The conditions noted are these: both partners purified.

Residue numbers refer to the chain shown, from its start. Numbers in names are those of the source.

T1 sequence (Q9GZZ9 whole entry): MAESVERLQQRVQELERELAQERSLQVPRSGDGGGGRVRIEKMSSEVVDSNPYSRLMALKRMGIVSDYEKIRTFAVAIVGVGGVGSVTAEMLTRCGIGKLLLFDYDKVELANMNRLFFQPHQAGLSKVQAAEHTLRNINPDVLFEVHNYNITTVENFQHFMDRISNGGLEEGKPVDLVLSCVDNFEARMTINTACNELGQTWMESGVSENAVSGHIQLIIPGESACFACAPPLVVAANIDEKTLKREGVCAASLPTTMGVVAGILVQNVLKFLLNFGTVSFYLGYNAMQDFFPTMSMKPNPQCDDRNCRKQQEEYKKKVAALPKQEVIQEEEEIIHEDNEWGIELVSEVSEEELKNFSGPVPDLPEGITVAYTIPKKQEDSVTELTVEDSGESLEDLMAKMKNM

B1: UFC1 (wild type, recombinant) (enzyme, human, UniProt Q9Y3C8 1-167, looked up)
chain: MADEATRRVVSEIPVLKTNAGPRDRELWVQRLKEEYQSLIRYVENNKNADNDWFRLESNKEGTRWFGKCWYIHDLLKYEFDIEFDIPITYPTTAPEIAVPELDGKTAKMYRGGKICLTDHFKPLWARNVPKFGLAHLMALGLGPWLAVEIPDLIQKGVIQHKEKCNQ
notes: UFC1, human, the E2-like conjugating enzyme of UFM1; also called E2-like enzyme for ufmylation; source: recombinant, E. coli, purified on Glutathione Sepharose 4B, GST removed by PreScission protease
In the case of B1, the binding result was “binds”.

B2: UFC1 T106I (recombinant) (enzyme, human, UniProt Q9Y3C8 1-167, looked up)
chain: B1 chain with T106I
notes: UFC1, human, with the patients' homozygous variant c.317C>T p.(Thr106Ile); A variant found in patients; also called p.(Thr106Ile); source: recombinant, E. coli, purified on Glutathione Sepharose 4B, GST removed by PreScission protease
For B2, the binding result is reported as “binds”.
